What was measured:
[1] = target: Schizosaccharomyces japonicus Yop1, full length, with a C-terminal SBP tag (Schizosaccharomyces japonicus) (UniProt B6K529); test: SEC-MALS; in the detergent DDM; 20 mM Tris/HCl pH 7.5, 100 mM NaCl, 0.03% DDM; protein 0.2-1 mg/ml; protein conjugate model
[2] = target: Yop1F65Bpa (S. japonicus Yop1 with the photoreactive probe Bpa at F65 in TM2) (Schizosaccharomyces japonicus) (UniProt B6K529); test: cross-linking + SEC; Yop1F65Bpa irradiated in liposomes, then membranes solubilized in DDM and run on SEC
[3] = target: Yop1F65Bpa (S. japonicus Yop1 with the photoreactive probe Bpa at F65 in TM2) (Schizosaccharomyces japonicus) (UniProt B6K529); test: cross-linking; photo-cross-linking through Bpa; purified protein reconstituted into liposomes of S. cerevisiae lipid extract at a protein:lipid molar ratio of 1:200; UV for 30 min on an ice-cold block; SDS-PAGE and Coomassie-blue staining

| stoichiometry N [1] | stoichiometry N [2] | percent of monomers cross-linked into dimers [3] | Substance |
| --- | --- | --- | --- |
| 2 |  |  | Schizosaccharomyces japonicus Yop1, full length, with a C-terminal SBP tag (from UniProt B6K529 1-191) (natural protein) |
|  | 2 | > 75% | Yop1F65Bpa (S. japonicus Yop1 with the photoreactive probe Bpa at F65 in TM2) (from UniProt B6K529 1-191) (natural protein) |
